Biological target: T1, Human TROP2蛋白 (human, UniProt P09758 27-274, limits assumed)
T1 construct: also called 人TROP2
T1 sequence (looked up): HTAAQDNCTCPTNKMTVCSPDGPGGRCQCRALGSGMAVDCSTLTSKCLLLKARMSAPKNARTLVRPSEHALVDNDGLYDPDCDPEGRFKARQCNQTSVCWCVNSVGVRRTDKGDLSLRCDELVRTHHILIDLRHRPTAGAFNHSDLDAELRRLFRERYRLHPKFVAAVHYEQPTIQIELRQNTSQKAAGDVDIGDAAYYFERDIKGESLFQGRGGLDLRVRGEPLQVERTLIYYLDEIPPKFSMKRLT
Experiment: ELISA, TROP2 protein incubated with antibody dilutions, goat anti-human IgG (H+L) secondary antibody

binding result: binds
B1: SY02人源化抗体 (人源化抗TROP2抗体SY02) (antibody, human IgG1, kappa, V domains shown)
VH: QVQLVQSGAEVKKPGSSVKVSCKASGYTFTDYSINWVRQAPGQGLEWMGVISTYYGDASYNQKFKGRVTITADESTSTAYMELSSLRSEDTAVYYCARYGDGYNQFDYWGQGTLVTVSS
VL: DIQMTQSPSSLSASVGDRVTITCRVSESVDSYGNNFMHWYQQKPGKAPKLLIYRASNLESGVPSRFSGSGSGTDFTFTISSLQPEDIATYYCQQSYEDPYTFGGGTKLEIKR
notes: also called 裸抗SY02
